Assay results published in patent publication US20150307889.

What was measured:
[1] = system: zmPPL_1360-r23a1 ZFN monomer (synthetic construct); experiment: cell_activity; conditions: ZFN pair with zmPPL_1360-30a1 in bombarded haploid maize callus; control 5.0; locus target SEQ 32
[2] = system: zmPPL_1360-30a1 ZFN monomer (synthetic construct); experiment: cell_activity; conditions: ZFN pair with zmPPL_1360-r23a1 in bombarded haploid maize callus; control 5.0; locus target SEQ 32

Sequence	activity (indels per 1 million high quality reads) [1]	activity (indels per 1 million high quality reads) [2]
ACTCCGTATGCGAAGGCA (double strand) [zmPPL_1360-r23a1 half-site (PPL1 locus)]	40	
TTCGCGGTGGGACACTTG (double strand) [zmPPL_1360-30a1 half-site (PPL1 locus)]		40
